Earlier results in article PMC3491057, “Proliferating Cell Nuclear Antigen (PCNA) Interactions in Solution Studied by NMR” (PLoS ONE, 2012).

How the values were obtained:
[1] = target: p21 87-164 (Homo sapiens) (UniProt P38936)
[2] = target: p21 (p2120) 141-160 (Homo sapiens) (UniProt P38936)
Fen-1 (Homo sapiens) = Fen-1 (Homo sapiens) (UniProt P39748); test: SPR
[3] = target: p21 (p2122) 139-160 (Homo sapiens) (UniProt P38936)
Sequence of p21 (p2122) 139-160 (Homo sapiens) (P38936 139-160): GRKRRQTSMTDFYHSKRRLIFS

Sequence of PCNA (P12004 whole entry): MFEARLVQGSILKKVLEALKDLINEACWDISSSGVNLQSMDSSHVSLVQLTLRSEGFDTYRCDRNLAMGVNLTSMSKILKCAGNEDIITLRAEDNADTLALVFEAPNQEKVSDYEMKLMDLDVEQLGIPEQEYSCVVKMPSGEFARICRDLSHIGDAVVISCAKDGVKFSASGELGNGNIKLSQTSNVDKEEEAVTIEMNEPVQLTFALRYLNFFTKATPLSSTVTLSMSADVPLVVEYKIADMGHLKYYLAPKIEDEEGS
Sequence of p21 (p2120) 141-160 (Homo sapiens) (P38936 141-160): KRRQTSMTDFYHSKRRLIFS
Sequence of p21 87-164 (Homo sapiens) (P38936 87-164): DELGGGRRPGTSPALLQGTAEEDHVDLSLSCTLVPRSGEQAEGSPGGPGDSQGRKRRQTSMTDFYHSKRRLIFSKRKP
Sequence of Fen-1 (Homo sapiens) (P39748 whole entry): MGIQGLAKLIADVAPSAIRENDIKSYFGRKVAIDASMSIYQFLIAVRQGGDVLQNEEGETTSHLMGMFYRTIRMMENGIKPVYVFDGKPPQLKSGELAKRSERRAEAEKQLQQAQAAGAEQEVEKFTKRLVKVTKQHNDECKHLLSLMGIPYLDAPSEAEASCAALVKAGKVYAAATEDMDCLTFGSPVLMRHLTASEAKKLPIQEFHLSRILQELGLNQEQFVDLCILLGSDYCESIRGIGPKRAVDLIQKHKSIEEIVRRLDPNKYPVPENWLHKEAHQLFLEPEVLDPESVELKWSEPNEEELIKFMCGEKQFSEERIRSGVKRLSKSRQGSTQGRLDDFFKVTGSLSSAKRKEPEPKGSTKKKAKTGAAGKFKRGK

Kd [1]: 15 nM
Kd [2]: 88 nM
Kd (Fen-1 (Homo sapiens)): 60 nM
Kd [3]: 83 nM
Substance: PCNA (from UniProt P12004)
